Holding throughout (assay): Lineweaver-Burk plot of the Michaelis-Menten equation
Substrate in data set [1]: N=C(N)NCCC[C@H](N)C(=O)O
The format is biochemical, Thermococcus litoralis. The note with it: 70 °C, pH 10.0, free enzyme. The source says: Lineweaver-Burk plot of the Michaelis-Menten equation on arginase Tli08105

Substrate in data set [2]: NC(=O)C[C@H](N)C(=O)O
It is filed as biochemical, Thermococcus litoralis. Conditions: 90 °C, pH 9.0, free enzyme. An excerpt:
Lineweaver-Burk plot of the Michaelis-Menten equation on asparaginase Tli10209

Substrate in data set [3]: NC(=O)C[C@H](N)C(=O)O
It is filed as biochemical, Thermus thermophilus. Conditions: 80 °C, pH 9.0, free enzyme. The source says: Lineweaver-Burk plot of the Michaelis-Menten equation on asparaginase Ttha0067

B1: arginase Tli08105 (Thermococcus litoralis DSM 5473) (protein)
chain: MLFGIPSSKKPNLYILGIPWDNSSSFRRGCAEGPRAIREATSEELYNSFNEELVNLTEHWSYKDLGDIKADTFEELVEKVNAIVRKHYNGELFLFLGGDHSITYATFKAIKEASNEDFGLIYFDAHPDMYPEYDGDEYSHACTVRRLIEEGWVKGENVVQIGVRAPTREQVEFAKEHGVKIISASGIYRSPVIQVPFEKAYLSFDMDVLDPAFAPGVGNPEPGGLSTRELVEVIKSLNVEIIAFDIVELNPKYDYKGISAFAAAKIIREVLGKAAKTK
notes: recombinant, purified by Ni2+-NTA; free enzyme; expression details in supplement
Take B1: in data set [1], the Km (as a rule, the substrate concentration at which the rate is half of its maximum) was found to be 1.059 mM; the Vmax (in general, the rate approached at saturating substrate) worked out at 961 µM/min; the kcat (in general, the maximal rate divided by the concentration of active sites) came out at 1.25 s⁻¹; the kcat/Km (in general, the second-order rate constant that governs catalysis at low substrate concentration) came out at 1350 M⁻¹ s⁻¹.

B2: asparaginase Tli10209 (Thermococcus litoralis DSM 5473) (protein)
chain: MSEKRKLERRGAEDMKRILIIGTGGTIASAKTDAGFKSVLTIDEILEKADIKLKNGYEIDTRNILNIDSTLIQPEDWERIAKEVYKALEDYDGIVITHGTDTLAYTASMLTFMIRGINKPVVLTGSMRPVTEEESDAPRNLKAAIRFAMEDVSGIFVAFMDKIMLGCRTSKIRALGLNAFMSINYPDVAYVKGEEVIYNLPQKRFKPKGEPVLDTKYEPRVVFIRLTPGLDGNAIDALVKAGYRGIVLEGYGAGGIPYRKRDILSKIREITPQIPVVMTTQALYDGVDLTKYEVGRKALEAGIIPAKDMTKETTITKLMWALGHTKNVEEVKEIMHTNYADEIEG
notes: as for B1
Turning to B2, in data set [2], the Km is given as 4.340 mM, the catalytic constant (kcat) stood at 2080 s⁻¹ and the specificity constant (kcat/Km) amounted to 479000 M⁻¹ s⁻¹.

B3: asparaginase Ttha0067 (Thermus thermophilus HB8) (protein)
chain: MSAEVLVYRGSLVENRHRVSLALWGPEGLVAYAGDPGRVAYLRSSAKPFQALALYLTGAVERFGLTEEEVALATASHDGTPRHVEVAARFLGKLGLGPEHLVCGVHPPFSREARAALEAQGLAPTPLHHNCSGKHAGMLAAALALGAPAEGYHLPDHPVQRLNLATLEALSGARPGLATDGCSVPTFALSLARAARAFFLLADPGRAPEAYRTPLLRVREAMRRHPDLVAGPGSVDTLLMERLPVVAKRGADGYYGLALLEGPRGPLGVALKVEDGATLAREVAVVALLRALGLDPGKTPWDRPPVRNHRGLEVGHLEARLGLVWV
notes: as for B1
On to B3, for which, in data set [3], the Km is 6.178 mM, the kcat was found to be 1210 s⁻¹ and the kcat/Km was determined as 196000 M⁻¹ s⁻¹.

These data come from paper PMC10848425, “Selective enhanced cytotoxicity of amino acid deprivation for cancer therapy using thermozyme functionalized nanocatalyst” (Journal of Nanobiotechnology, 2024).
